The source of these data is patent publication US6613878 (CYCLACEL, dated 2003).

Ends that are not written are not given here. * marks the point of attachment. Biotin = O=C1N[C@H]2[C@H](CS[C@H]2CCCCC(=O)*)N1

Experiment [1] deals with T1, human PCNA (proliferating cell nuclear antigen) (human, UniProt P12004 1-261).
T1 construct: also called recombinant human PCNA
The experiment in a line: precipitation assay. The protocol: (§1) Twenty amino acid peptides with 15 amino acid overlaps were synthesized (Chiron Mimotopes, Australia) across the 89 amino acids from the C-terminal region of Fen1 identified in the two hybrid screen as the PCNA binding site on Fen1. These peptides were linked via residues SGSG (SEQ ID NO:3) at the amino acid terminus to biotin. 2.7 µg of each peptide was incubated with 10 µl streptavidin agarose beads (Sigma) in phosphate buffered saline (PBS) for 1 hour at room temperature (r.t.) then beads were washed extensively in PBS and recovered each time by centrifugation at 11,600 g. HeLa cell lysate was added to the washed beads to a final protein concentration of 1 mg/ml and incubated with the beads on ice for 1 hour. Beads were extensively washed in PBS with 220 mM NaCl, then bound proteins removed by boiling for 8 minutes in SDS loading buffer with 0.2 M DTT. Proteins were separated on 10% SDS-PAGE then electrophoretically transferred to nitrocellulose. Blots were blocked then incubated for 1 hour r.t. with PC 10 hybridoma supernatant (Waseem & Lane, 1990) diluted 1:5 in DMEM with 10% FCS. After washing, secondary HRP-conjugated anti-mouse IgG serum at 1:1000 in 2% non-fat milk-PBS-0.2% Tween was added for 1 hour at r.t. Bound antibody was visualised using the ECL system according to the manufacturer's instructions (Amersham plc.)
To map precisely the residues of Fen1 to which PCNA binds, a series of biotinylated 20 amino acids peptides (with 15 amino acid overlaps) were synthesized representing the region of Fen1 found to interact with PCNA in the two hybrid screen (FIG. 1). Fen1 peptides (bound to streptavidin agarose beads) were incubated with human HeLa cell extracts, then beads were precipitated and bound protein analysed on immunoblots probed with monoclonal anti-PCNA antibody PC10 (Waseen & Lane, 1990).

The target of experiment [2] is T2, human Fen1 fused to the transcriptional activation domain of Gal4 (Gal4ACT) (human, UniProt P39748 1-380).
T2 construct: range 1-380; Yeast two hybrid prey; also called DNase IV; rad2hs
In words: yeast two hybrid. From the text:
The 89 Amino Acids From the C-terminal Region of Fen1 Bind PCNA in an Interaction Trap Proteins that interact physically with human PCNA were screened using a two hybrid interaction trap system that detects protein-protein interactions by reconstitution of a functional Gal4 transcriptional activator in the yeast *Saccharomyces cerevisiae*. A plasmid expressing human PCNA in fusion with the DNA binding domain of Gal4 (Gal4AS) was used to screen plasmids expressing fusion constructs of molecules encoded by fragments from a human cDNA library with the transcriptional activation domain of Gal4 (Gal4ACT). […] The minimal Fen1 fragment isolated in our screen (FIG. 1) encoded the 89 amino acids from the C-terminal region of the protein (full length 380 aa, (Murray et al., 1994)), therefore localising the PCNA binding site to these residues.

In experiment [3] the target is T1, human PCNA (proliferating cell nuclear …). In words: peptide on streptavidin agarose beads, precipitation from HeLa extract, PC10 immunoblot. How it is done:
as §1, with “These” for “Twenty amino acid peptides with 15 amino acid overlaps were synthesized (Chiron Mimotopes, Australia) across the 89 amino acids from the C-terminal region of Fen1 identified in the two hybrid screen as the PCNA binding site on Fen1. These”
The region of human Fen1 recognised by PCNA in the precipitation assay contains a motif highly conserved in the Fen1 family. We examined whether human PCNA could bind to his motif in the yeast homologues of Fen1, *S. pombe* rad2 and *S. pombe* RAD27/YKL510. […]
Background: A western blot detects proteins with antibodies after separation by electrophoresis.

T1 sequence (P12004 whole entry): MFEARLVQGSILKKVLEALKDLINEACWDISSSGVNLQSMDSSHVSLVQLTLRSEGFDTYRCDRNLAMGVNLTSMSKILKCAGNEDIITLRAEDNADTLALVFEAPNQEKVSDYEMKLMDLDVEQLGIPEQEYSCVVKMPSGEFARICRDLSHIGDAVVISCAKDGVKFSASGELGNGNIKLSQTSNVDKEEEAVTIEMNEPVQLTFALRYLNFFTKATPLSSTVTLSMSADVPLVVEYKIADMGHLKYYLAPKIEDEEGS
T2 sequence (P39748 whole entry, the tested form may be a part): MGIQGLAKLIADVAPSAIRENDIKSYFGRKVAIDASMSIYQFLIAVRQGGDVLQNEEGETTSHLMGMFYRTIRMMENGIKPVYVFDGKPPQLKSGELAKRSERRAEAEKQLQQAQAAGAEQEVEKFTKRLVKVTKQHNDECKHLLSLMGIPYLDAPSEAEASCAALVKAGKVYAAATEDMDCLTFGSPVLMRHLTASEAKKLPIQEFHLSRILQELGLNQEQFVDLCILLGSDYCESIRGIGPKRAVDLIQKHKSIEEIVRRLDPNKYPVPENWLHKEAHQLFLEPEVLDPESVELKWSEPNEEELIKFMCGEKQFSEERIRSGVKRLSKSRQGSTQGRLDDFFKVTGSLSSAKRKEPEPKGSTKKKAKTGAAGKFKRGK

B1: peptide 92, 20 amino acid peptide of the conserved box of S. pombe rad2 (peptide)
peptide: ASKTIPQGRLDSFFKPVPSS
modifications: not fully specified (N-terminus); also: biotinylated, position not given here
notes: also called rad2 peptide
B1: in experiment [1], the binding result is “binds”.

B2: Fen1 peptide 86 (peptide)
peptide: Biotin-SGSGTQGRLDDFFKVTGSLSSAKR
As for B2, in experiment [1], the binding result was “binds”.

B3: Fen1 peptide 84 (Fen1PBP, Fen1-PCNA binding peptide) (peptide)
peptide: Biotin-SGSGKRLSKSRQGSTQGRLDDFFK
notes: also called FenPBP
On to B3, for which the binding result in experiment [1] is given as “binds”.

B4: PCNA from Schizosaccharomyces pombe (other, UniProt Q03392 1-260, looked up)
chain: MLEARFQQAALLKKLLDAIKELVTDANFDCNDNGISLQAMDSSHVALVSMLIKSDGFEPYRCDRNIALGINLNALSKVLRCAQNEDLVTLKAEDTPEVLNLVFESEKNDRISDYDVKLMDIDQEHLGIPDIEYDATITMPAAEFQRITRDLLTLSDSVTINASKEGVRFSCKGDIGNGSTTLKQHTDLSDQDQSIEISLTQAVTLTFSLKYLAQFTKATPLATRVTLSMSNDVPLLVEYKMESGFLRFYLAPKIGEEDEE
notes: Two hybrid construct; the Gal4 fusion is not described for this protein; also called S. pombe PCNA; pcn1 product
B4: the binding result in experiment [2] is on record as “binds”.

B5: peptide 93, 20 amino acid peptide of the conserved box of S. cerevisiae RAD27/YKL510 (peptide)
peptide: GLKSGIQGRLDGFFQVVPKT
modifications: not fully specified (N-terminus); also: biotinylated, position not given here
notes: also called RAD27 peptide
As for B5, in experiment [3], the binding result is listed as “binds”.

B6: PCNA from Drosophila melanogaster (other, UniProt P17917 1-260, looked up)
chain: MFEARLGQATILKKILDAIKDLLNEATFDCSDSGIQLQAMDNSHVSLVSLTLRSDGFDKFRCDRNLSMGMNLGSMAKILKCANNEDNVTMKAQDNADTVTIMFESANQEKVSDYEMKLMNLDQEHLGIPETDFSCVVRMPAMEFARICRDLAQFSESVVICCTKEGVKFSASGDVGTANIKLAQTGSVDKEEEAVIIEMQEPVTLTFACRYLNAFTKATPLSTQVQLSMCADVPLVVEYAIKDLGHIRYYLAPKIEDNET
notes: Two hybrid construct; the Gal4 fusion is not described for this protein; also called D. melanogaster PCNA
Consider B6, for which the binding result in experiment [2] is “binds”.

B7: Fen1 peptide 85 (peptide)
peptide: Biotin-SGSGSRQGSTQGRLDDFFKVTGSL
Consider B7, for which the binding result in experiment [1] was “binds”.
